Values joined by “and” are separate entries in the source; they are usually repeats but may differ in a detail not shown here. Equal values may be shown once. Read-outs that look alike come from different tables or passages of the source. No end group written: not given here.
Assays:
[1] = target: T1, human CRH receptor type 2 (human, UniProt Q13324 1-411); test: cell-based or functional assay
T1 sequence (looked up): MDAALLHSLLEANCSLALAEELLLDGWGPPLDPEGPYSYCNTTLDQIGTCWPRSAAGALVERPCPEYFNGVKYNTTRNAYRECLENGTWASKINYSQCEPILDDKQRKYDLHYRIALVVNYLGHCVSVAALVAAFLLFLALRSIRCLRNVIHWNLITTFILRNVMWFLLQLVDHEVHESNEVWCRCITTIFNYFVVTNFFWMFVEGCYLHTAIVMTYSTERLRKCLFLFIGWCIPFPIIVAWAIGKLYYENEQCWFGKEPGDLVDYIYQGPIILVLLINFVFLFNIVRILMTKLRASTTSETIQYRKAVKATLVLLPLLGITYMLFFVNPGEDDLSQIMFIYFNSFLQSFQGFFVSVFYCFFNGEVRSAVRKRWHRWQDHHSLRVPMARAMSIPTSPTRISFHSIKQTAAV

[2] = target: T1, human CRH receptor type 2; test: radioligand competition, [125I]-anti-sauvagine-30, membranes of h-CRHR2 SK-N-MC cells
[3] = target: T1, human CRH receptor type 2; test: cell-based or functional assay; remark: listed apart in the source
[4] = target: T2, human CRH receptor type 1 (human, UniProt P34998 24-415); test: radioligand competition, [125I]-(Tyr0)-sauvagine, CRHR1 membrane assay
T2 construct: whole, on cells; on transfected SK-N-MC cells (cAMP assay); membranes in the radioligand assay; also called CRHR1; h-CRHR1
T2 sequence (looked up): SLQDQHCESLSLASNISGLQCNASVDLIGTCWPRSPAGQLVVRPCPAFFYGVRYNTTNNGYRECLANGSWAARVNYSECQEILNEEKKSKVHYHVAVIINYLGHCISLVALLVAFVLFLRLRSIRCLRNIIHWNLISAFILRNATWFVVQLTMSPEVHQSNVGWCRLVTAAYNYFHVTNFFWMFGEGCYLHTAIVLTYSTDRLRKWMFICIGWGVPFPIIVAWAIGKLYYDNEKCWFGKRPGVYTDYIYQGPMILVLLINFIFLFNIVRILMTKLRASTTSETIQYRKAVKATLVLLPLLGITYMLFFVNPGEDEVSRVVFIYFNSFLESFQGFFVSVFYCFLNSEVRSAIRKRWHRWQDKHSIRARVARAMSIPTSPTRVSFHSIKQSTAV
Protocol: Frozen cell pellets were defrosted on ice in 15 ml of assay buffer that was composed of 10 mM HEPES, 130 mM NaCl, 4.7 mM KCl, 5 mM MgCl₂, and 0.089 mM bacitracin at pH 7.2 and 21±3° Celsius. The solution was then homogenized with a Polytron tissue grinder at a setting of 10 and 7×3s (Brinkmann Instruments, Westbury, N.Y.). The homogenate was centrifuged at 4° Celsius at 800×g for 5 min with the pellet being discarded. The supernatant was re-centrifuged at 26,892×g for 25 min at 4° Celsius with the final pellet being re-suspended in assay buffer. All binding assays were conducted in 96-well Multiscreen GF/B filter plates (Millipore, Billericay, Mass., U.S.A.) that were pre-soaked in assay buffer with 0.3% PEI for 1 hour. […] The bound radioactivity was separated by filtration using a Multiscreen Resist manifold (Millipore Corp., Billerica, Mass., U.S.A). The filters were washed three times with ice-cold PBS at pH 7.5 and radioactivity retained on the filters was quantified by its liquid scintillation measured by a TopCount counter (Packard BioScience, Boston, Mass., U.S.A). All experiments were performed in triplicate.
Data from individual competition curves were expressed as the percentage of specific [¹²⁵I]-anti-sauvagine-30 or)[¹²⁵I]-(Tyr⁰-sauvagine binding (B) within each experiment.

[5] = target: T1, human CRH receptor type 2; test: radioligand competition, [125I]-anti-sauvagine-30, membranes of h-CRHR2 SK-N-MC cells; biphasic curve
[6] = target: T2, human CRH receptor type 1; test: cell-based or functional assay
[7] = target: T3, human CRH receptor type 1 (human), P34998; test: radioligand competition, [125I]-(Tyr0)-sauvagine, CRHR1 membrane assay; conditions: remark: other sources report otherwise
T3 chain: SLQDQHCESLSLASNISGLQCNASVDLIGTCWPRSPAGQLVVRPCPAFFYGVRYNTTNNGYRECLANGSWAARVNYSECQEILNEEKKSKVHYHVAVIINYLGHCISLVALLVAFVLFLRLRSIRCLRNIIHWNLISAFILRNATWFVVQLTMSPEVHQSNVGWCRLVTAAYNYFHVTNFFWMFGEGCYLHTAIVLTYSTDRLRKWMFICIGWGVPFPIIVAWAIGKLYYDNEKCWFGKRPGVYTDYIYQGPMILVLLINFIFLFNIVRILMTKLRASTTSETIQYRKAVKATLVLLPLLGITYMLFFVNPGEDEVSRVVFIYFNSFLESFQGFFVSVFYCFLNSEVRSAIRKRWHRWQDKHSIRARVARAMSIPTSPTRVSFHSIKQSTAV

[8] = target: T1, human CRH receptor type 2; test: inferred from the test as antagonist at 10 µM, cAMP assay on h-CRHR2 SK-N-MC cells
[9] = target: T1, human CRH receptor type 2; test: cell-based or functional assay; remark: listed apart in the source
[10] = target: T1, human CRH receptor type 2; test: cell-based or functional assay; remark: listed apart in the source
[11] = target: T1, human CRH receptor type 2; test: cell-based or functional assay; remark: listed apart in the source
[12] = scale: % of the maximum response obtained to h-SCP

Molecule: human urocortin 2 (peptide)
- pA50, cAMP [1]: 9.51 -log M
- αmax, cAMP [1]: 115 and 129
- αmax, cAMP [1, 12]: 117
- pKI [2]: 7.74 -log M

Molecule: h-SRP (peptide)
- pA50, cAMP [1]: 9.32 -log M and 9.58 -log M and 9.23 -log M
- αmax, cAMP [1]: 114 and 109 and 98.6
- pKI [2]: 7.57 -log M

B1: Human stresscopin with amidated C-terminus (peptide)
peptide: TKFTLSLDVPTNIMNLLFNIAKAKNLRAQAAANAHLMAQI-NH2
notes: 40 amino acids; also called h-SCP
- A50, cAMP [3]: 0.4 nM
- control pA50, cAMP [3]: 9.47 to 9.74 -log M
- pA50, cAMP [3]: 9.4 -log M
- pA50, cAMP (one batch) [3]: 9.41 -log M
- αmax, cAMP (% of the maximum response to h-SCP) [3]: 98.7
- αmax, cAMP [3, 12]: 100
- pKI [4]: 4.6 -log M
- pIC50 (low affinity state) [5]: 6.6 -log M
- pA50, cAMP [6]: < 5 -log M
- pKI [2]: 5.71 -log M

B2: r-UCN1 (peptide)
peptide: DDPPLSIDLTFHLLRTLLELARTQSQRERAEQNRIIFDSV-NH2
- pA50, cAMP [1]: 9.08 -log M
- αmax, cAMP [1]: 110
- pA50, cAMP [6]: 9.19 -log M
- pKI [2]: 8.51 -log M

B3: human Urocortin III (peptide)
peptide: FTLSLDVPTNIMNLLFNIAKAKNLRAQAAANAHLMAQI-NH2
- pKI [7]: 4.96 -log M
- pA50, cAMP [3]: 9.26 -log M
- αmax, cAMP [3]: 102
- pA50, cAMP [6]: < 5 -log M
- pKI [2]: 6.49 -log M

B4: anti-sauvagine-30 (peptide)
peptide: FHLLRKMIEIEKQEKEKQQAANNRLLLDTI-NH2
notes: selective CRHR2 antagonist; also called SV30; CRHR antagonist peptide
- pA2 against h-SCP, cAMP [3]: 7.82 -log M
- pKI [4]: 5.81 -log M
- pKI [2]: 7.78 -log M

B5: CRHR2 peptide agonist with shortened amino acid sequence, 35aa, SEQ ID NO: 110 (peptide)
peptide: SLDVPTNIMNLLFNIAKAKNLRAQAAANAHLMAQI-NH2
- KA (receptor affinity, in µM) [8]: > 10 µM

B6: CRHR2 peptide agonist with shortened amino acid sequence, 34aa, SEQ ID NO: 111 (peptide)
peptide: LDVPTNIMNLLFNIAKAKNLRAQAAANAHLMAQI-NH2
- KA (receptor affinity, in µM) [8]: > 10 µM

B7: CRHR2 peptide agonist with shortened amino acid sequence, 33aa, SEQ ID NO: 112 (peptide)
peptide: DVPTNIMNLLFNIAKAKNLRAQAAANAHLMAQI-NH2
- KA (receptor affinity, in µM) [8]: > 10 µM

B8: non-amidated h-SCP (peptide)
peptide: TKFTLSLDVPTNIMNLLFNIAKAKNLRAQAAANAHLMAQI-OH
- pA50, cAMP [9]: 7.1 -log M
- αmax, cAMP [9]: 107 % of the maximum response to h-SCP
- potency against amidated h-SCP, cAMP [10]: ~200 fold less potent

B9: CRHR2 peptide agonist with shortened amino acid sequence, 39aa, SEQ ID NO: 107 (peptide)
peptide: KFTLSLDVPTNIMNLLFNIAKAKNLRAQAAANAHLMAQI-NH2
- pA50, cAMP [9]: 9.25 -log M
- αmax, cAMP [9]: 111 % of the maximum response to h-SCP

B10: CRHR2 peptide agonist with shortened amino acid sequence, 37aa, SEQ ID NO: 108 (peptide)
peptide: TLSLDVPTNIMNLLFNIAKAKNLRAQAAANAHLMAQI-NH2
- pA50, cAMP [9]: 8.49 -log M
- αmax, cAMP [9]: 106 % of the maximum response to h-SCP

B11: Cys-variant CRHR2 peptide agonist, SEQ ID NO: 9 (peptide)
peptide: TKFTLSLCVPTNIMNLLFNIAKAKNLRAQAAANAHLMAQI-NH2
- Log DR against h-SCP, cAMP [11]: 1.89 log10 ratio
- pA50, cAMP [11]: 7.8 -log M

B12: Pegylated Cys-variant CRHR2 peptide agonist (NES linker, PEG about 20 kDa), SEQ ID NO: 62 (peptide)
peptide: TKFTLSLCVPTNIMNLLFNIAKAKNLRAQAAANAHLMAQI
modifications: NES-PEG (about 20 kDa) on Cys 8; C-terminal amide
- Log DR against h-SCP, cAMP [11]: > 3.48 log10 ratio
- pA50, cAMP [11]: ~6.06 -log M

B13: Cys-variant CRHR2 peptide agonist, SEQ ID NO: 10 (peptide)
peptide: TKFTLSLDCPTNIMNLLFNIAKAKNLRAQAAANAHLMAQI-NH2
- Log DR against h-SCP, cAMP [11]: 1.3 log10 ratio
- pA50, cAMP [11]: 8.28 -log M

B14: Pegylated Cys-variant CRHR2 peptide agonist (NES linker, PEG about 20 kDa), SEQ ID NO: 63 (peptide)
peptide: TKFTLSLDCPTNIMNLLFNIAKAKNLRAQAAANAHLMAQI
modifications: NES-PEG (about 20 kDa) on Cys 9; C-terminal amide
- Log DR against h-SCP, cAMP [11]: ~2.12 log10 ratio
- pA50, cAMP [11]: ~7.45 -log M

B15: Cys-variant CRHR2 peptide agonist, SEQ ID NO: 11 (peptide)
peptide: TKFTLSLDVCTNIMNLLFNIAKAKNLRAQAAANAHLMAQI-NH2
- Log DR against h-SCP, cAMP [11]: 0.82 log10 ratio
- pA50, cAMP [11]: 8.76 -log M

B16: Pegylated Cys-variant CRHR2 peptide agonist (NES linker, PEG about 20 kDa), SEQ ID NO: 64 (peptide)
peptide: TKFTLSLDVCTNIMNLLFNIAKAKNLRAQAAANAHLMAQI
modifications: NES-PEG (about 20 kDa) on Cys 10; C-terminal amide
- Log DR against h-SCP, cAMP [11]: ~2.59 log10 ratio
- pA50, cAMP [11]: ~6.98 -log M

B17: Cys-variant CRHR2 peptide agonist, SEQ ID NO: 12 (peptide)
peptide: TKFTLSLDVPCNIMNLLFNIAKAKNLRAQAAANAHLMAQI-NH2
- Log DR against h-SCP, cAMP [11]: 1.72 log10 ratio
- pA50, cAMP [11]: 7.86 -log M

B18: Pegylated Cys-variant CRHR2 peptide agonist (NES linker, PEG about 20 kDa), SEQ ID NO: 65 (peptide)
peptide: TKFTLSLDVPCNIMNLLFNIAKAKNLRAQAAANAHLMAQI
modifications: NES-PEG (about 20 kDa) on Cys 11; C-terminal amide
- Log DR against h-SCP, cAMP [11]: ~2.75 log10 ratio
- pA50, cAMP [11]: ~6.82 -log M
